Seven substances from PMC3398536 can be followed below.

Holding throughout (experiment): native gel or EMSA
In general terms: A gel shift assay detects complexes by their altered migration in electrophoresis.

In test [1] the target is AcK-pro-PanD variant with acetyl-lysine at position 9 (S. enterica).
In test [2] the target is AcK-pro-PanD variant with acetyl-lysine at position 14 (S. enterica).
For test [3], the target named is AcK-pro-PanD variant with acetyl-lysine at position 53 (S. enterica).
Test [4] concerns the target AcK-pro-PanD variant with acetyl-lysine at position 104 (S. enterica).
Test [5] has as its target AcK-pro-PanD variant with acetyl-lysine at position 115 (S. enterica).
For test [6], the target named is AcK-pro-PanD variant with acetyl-lysine at position 119 (S. enterica).
The target in test [7] is pro-PanD (wild type), made from a plasmid in S. enterica ΔpanM (S. enterica).

One may read the stoichiometry N as a count of units in the complex or per binding partner. For the substance “AcK-pro-PanD variant with acetyl-lysine at position 9 (natural protein)”, the stoichiometry N in test [1] came to 4.
In test [2], “AcK-pro-PanD variant with acetyl-lysine at position 14 (natural protein)” showed a stoichiometry N of 4.
Substance “AcK-pro-PanD variant with acetyl-lysine at position 53 (natural protein)” had a stoichiometry N in test [3] of 4.
As for “AcK-pro-PanD variant with acetyl-lysine at position 104 (natural protein)”, the stoichiometry N in test [4] was determined as 4.
The substance “AcK-pro-PanD variant with acetyl-lysine at position 115 (natural protein)” displayed a stoichiometry N in test [5] of 4.
Substance “AcK-pro-PanD variant with acetyl-lysine at position 119 (natural protein)” gave a stoichiometry N in test [6] of 4.
Substance “pro-PanD (wild type), made from a plasmid in S. enterica ΔpanM (natural protein)” returned a stoichiometry N in test [7] of 4.
